For this test, the target named is human housekeeping core (20S) proteasome purified from erythrocytes (human), P60900. Briefly: cell-based or functional assay.

Where no end group is shown, it is not given here. [ ]: non-standard residue; d: D form. Aib = CC(C)(N)C(=O)O

Molecule GRKKRRQ[Aib]GQRRKKRG [Tat5-8,9 Aib] had an AC50, ChT-L activity (Suc-LLVY-MCA) of 183 nM and a Max activation fold, ChT-L activity of 8.9 fold.

These data come from patent publication US20220332758A1, “PEPTIDE-BASED COMPOSITIONS AND METHODS FOR TREATING ALZHEIMER'S DISEASE” (Board of Regents, The Universityof Texas System, priority 2019, published 2022).
